The source of these data is IntAct's records for PubMed 22070932.

Sequences and labels used below:
B1: DAZ-associated protein 2 (Homo sapiens), Q15038 (parent)
chain: MNSKGQYPTQPTYPVQPPGNPVYPQTLHLPQAPPYTDAPPAYSELYRPSFVHPGAATVPTMSAAFPGASLYLPMAQSVAVGPLGSTIPMAYYPVGPIYPPGSTVLVEGGYDAGARFGAGATAGNIPPPPPGCPPNAAQLAVMQGANVLVTQRKGNFFMGGSDGGYTIW
B2: DAZ-associated protein 2 (Homo sapiens), Q15038 (parent)
chain: B1 chain
partner: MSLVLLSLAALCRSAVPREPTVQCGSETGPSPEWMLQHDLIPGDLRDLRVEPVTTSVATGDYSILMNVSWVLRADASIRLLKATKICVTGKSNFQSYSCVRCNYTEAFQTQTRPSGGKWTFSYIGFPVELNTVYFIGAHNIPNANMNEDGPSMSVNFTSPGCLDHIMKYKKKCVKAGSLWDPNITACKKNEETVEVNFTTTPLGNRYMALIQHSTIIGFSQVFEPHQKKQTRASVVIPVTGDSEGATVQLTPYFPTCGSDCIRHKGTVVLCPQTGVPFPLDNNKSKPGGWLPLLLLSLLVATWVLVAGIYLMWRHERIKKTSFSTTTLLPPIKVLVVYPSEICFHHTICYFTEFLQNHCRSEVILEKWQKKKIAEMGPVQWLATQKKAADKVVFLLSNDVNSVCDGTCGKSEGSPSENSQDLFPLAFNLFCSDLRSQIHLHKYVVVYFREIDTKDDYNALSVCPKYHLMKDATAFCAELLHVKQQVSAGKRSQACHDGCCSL

The variants in the first test derive from B1. To be noted: with smuf2_human SMURF2, Q9HAU4.
Chain of smuf2_human SMURF2, Q9HAU4 (Q9HAU4 whole entry): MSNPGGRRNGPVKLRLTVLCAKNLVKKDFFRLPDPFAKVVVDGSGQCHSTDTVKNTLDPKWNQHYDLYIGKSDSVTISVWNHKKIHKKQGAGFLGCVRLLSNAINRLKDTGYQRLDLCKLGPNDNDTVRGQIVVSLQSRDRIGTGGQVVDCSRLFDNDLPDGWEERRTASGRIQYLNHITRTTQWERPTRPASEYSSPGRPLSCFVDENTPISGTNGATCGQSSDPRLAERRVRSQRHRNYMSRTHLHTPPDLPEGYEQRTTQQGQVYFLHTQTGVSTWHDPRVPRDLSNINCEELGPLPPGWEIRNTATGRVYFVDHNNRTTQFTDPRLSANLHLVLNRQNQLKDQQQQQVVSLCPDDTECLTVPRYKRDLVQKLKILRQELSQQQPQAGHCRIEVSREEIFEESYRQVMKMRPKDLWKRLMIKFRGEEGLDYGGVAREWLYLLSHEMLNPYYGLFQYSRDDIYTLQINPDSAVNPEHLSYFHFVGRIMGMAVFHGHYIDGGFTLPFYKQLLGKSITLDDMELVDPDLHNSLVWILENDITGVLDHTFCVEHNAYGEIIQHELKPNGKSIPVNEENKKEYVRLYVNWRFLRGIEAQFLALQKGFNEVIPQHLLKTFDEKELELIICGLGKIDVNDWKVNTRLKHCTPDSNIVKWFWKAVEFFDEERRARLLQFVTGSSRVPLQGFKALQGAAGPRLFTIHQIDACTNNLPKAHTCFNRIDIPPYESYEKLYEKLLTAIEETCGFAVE
Regarding Y42A, the “effect of a mutation on the interaction” value is listed as “disrupting interaction strength”.

Variants of B2 are the subject of another test. To be noted: with IL17RB.
Regarding Y42A, the “effect of a mutation on the interaction” value is listed as “decreasing interaction strength”. With Y165A, the “effect of a mutation on the interaction” value was “decreasing interaction strength”. As for Y42A;Y165A, the “effect of a mutation on the interaction” value is listed as “disrupting interaction strength”.
